Data on one molecule can be found in paper PMC5837818 (Molecular cell, 2018).

The assay has as its target E. coli core RNAP enzyme (E. coli, UniProt P0A7Z4 1-329; P0A8V2 1-1342; P0A8T7 1-1407; P0A800 1-91). The assay is described as follows: fluorescence polarisation.

Chain of E. coli core RNAP enzyme (P0A7Z4 whole entry, chain 1 of 4): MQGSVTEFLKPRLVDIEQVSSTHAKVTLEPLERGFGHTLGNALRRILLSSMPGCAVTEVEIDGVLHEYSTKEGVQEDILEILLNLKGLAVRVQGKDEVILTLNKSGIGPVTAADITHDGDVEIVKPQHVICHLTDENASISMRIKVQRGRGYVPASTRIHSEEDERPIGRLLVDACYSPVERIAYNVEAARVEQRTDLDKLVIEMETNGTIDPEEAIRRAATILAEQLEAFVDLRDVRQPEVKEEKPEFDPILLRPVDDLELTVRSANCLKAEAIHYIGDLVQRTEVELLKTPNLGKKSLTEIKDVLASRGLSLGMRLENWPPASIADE
Chain of E. coli core RNAP enzyme (P0A8V2 whole entry, chain 2 of 4): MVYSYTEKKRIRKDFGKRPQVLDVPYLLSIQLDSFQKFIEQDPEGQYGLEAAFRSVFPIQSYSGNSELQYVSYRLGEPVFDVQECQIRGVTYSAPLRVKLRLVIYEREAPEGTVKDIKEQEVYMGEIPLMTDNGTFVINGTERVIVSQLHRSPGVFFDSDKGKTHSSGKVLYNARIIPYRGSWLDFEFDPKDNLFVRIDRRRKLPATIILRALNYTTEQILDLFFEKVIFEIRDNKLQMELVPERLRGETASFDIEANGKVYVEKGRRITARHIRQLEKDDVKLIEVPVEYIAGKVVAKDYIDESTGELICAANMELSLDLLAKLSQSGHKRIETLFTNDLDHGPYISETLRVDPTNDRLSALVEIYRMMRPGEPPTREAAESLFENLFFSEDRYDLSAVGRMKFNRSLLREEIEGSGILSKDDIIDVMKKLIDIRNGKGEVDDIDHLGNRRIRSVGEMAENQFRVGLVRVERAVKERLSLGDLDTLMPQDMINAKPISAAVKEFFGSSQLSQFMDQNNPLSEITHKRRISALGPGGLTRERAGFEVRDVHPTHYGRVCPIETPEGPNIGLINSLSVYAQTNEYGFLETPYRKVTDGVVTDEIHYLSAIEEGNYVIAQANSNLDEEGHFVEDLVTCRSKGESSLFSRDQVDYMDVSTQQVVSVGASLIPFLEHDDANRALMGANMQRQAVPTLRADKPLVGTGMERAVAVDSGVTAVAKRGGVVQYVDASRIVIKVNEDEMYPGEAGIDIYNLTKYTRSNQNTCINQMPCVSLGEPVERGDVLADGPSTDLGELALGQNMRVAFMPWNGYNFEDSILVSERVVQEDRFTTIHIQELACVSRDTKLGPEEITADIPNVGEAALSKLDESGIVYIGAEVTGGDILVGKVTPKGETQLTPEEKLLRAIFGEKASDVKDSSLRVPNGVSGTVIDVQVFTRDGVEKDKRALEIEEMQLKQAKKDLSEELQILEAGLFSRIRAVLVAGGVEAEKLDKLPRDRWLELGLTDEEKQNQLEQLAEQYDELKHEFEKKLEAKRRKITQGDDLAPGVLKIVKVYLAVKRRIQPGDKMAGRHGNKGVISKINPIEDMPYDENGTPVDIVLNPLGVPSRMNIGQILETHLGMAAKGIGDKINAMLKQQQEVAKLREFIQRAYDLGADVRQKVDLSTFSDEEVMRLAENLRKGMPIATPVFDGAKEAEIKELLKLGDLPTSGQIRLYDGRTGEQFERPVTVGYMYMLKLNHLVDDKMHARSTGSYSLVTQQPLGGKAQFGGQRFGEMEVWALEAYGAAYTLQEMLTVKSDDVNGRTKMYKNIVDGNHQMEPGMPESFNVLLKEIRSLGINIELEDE
Chain of E. coli core RNAP enzyme (P0A8T7 whole entry, chain 3 of 4): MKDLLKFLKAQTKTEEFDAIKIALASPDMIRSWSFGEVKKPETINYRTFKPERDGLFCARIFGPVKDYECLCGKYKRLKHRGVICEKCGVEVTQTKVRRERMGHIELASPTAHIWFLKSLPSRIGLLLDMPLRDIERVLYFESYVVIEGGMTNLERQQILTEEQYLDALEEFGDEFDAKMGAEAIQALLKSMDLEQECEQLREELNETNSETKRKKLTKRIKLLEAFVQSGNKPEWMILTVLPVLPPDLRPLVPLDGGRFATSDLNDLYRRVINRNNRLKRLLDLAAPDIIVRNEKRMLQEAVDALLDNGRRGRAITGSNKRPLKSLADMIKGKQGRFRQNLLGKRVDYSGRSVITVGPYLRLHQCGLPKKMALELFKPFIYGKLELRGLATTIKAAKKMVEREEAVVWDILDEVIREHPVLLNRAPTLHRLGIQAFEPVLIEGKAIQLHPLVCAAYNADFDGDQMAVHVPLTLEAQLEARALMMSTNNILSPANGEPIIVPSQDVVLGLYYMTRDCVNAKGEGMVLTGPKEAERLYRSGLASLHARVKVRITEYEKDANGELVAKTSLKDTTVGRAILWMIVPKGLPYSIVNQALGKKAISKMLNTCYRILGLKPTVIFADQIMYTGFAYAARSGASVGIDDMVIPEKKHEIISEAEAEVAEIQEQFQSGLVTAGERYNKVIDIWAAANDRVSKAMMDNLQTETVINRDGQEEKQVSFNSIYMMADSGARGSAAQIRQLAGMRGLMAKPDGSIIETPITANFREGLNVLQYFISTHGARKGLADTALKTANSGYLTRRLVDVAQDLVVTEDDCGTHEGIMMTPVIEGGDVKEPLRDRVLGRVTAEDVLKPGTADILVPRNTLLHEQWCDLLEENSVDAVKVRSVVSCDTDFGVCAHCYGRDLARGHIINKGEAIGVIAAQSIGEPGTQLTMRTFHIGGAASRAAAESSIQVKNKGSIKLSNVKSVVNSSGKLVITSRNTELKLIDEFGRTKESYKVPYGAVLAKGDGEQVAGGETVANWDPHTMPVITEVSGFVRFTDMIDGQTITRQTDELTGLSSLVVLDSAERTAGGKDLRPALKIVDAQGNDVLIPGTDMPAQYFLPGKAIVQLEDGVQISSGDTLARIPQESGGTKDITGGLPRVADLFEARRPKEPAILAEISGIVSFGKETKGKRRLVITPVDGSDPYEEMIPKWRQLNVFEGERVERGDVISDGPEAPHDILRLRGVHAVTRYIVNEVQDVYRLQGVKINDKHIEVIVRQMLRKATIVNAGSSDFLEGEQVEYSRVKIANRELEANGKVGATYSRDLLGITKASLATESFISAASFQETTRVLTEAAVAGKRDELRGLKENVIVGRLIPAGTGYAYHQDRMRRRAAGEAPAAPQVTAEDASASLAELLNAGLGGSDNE
Chain of E. coli core RNAP enzyme (P0A800 whole entry, chain 4 of 4): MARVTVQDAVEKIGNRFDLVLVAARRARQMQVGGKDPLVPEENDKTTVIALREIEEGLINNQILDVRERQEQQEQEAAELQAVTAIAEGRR

B1: BODIPY FL-labelled DksA with a cysteine substitution at position 35 (A35C) (natural protein, E. coli)
chain: MQEGQNRKTSSLSILAIAGVEPYQEKPGEEYMNECQLAHFRRILEAWRNQLRDEVDRTVTHMQDEAANFPDPVDRAAQEEEFSLELRNRDRERKLIKKIEKTLKKVEDEDFGYCESCGVEIGIRRLEARPTADLCIDCKTLAEIREKQMAG
modifications: BODIPY FL (maleimide) conjugated to the cysteine at position 35
The Kd is the free concentration of one partner at which half of the binding sites on the other are occupied at equilibrium, for simple one-to-one binding. Lower therefore signals tighter binding. B1 registered a Kd of 112 nM.
